Laboratory results taken from patent publication US20200347133A1 (INHIBRX, published 2020).

B1: A07 sdAb (A07 VHH domain fused to human IgG1 xELL Fc region) (Fc fusion)
chain: QVQLVQSGGGLVQAGGSLTLSCAASRSSGIDVMGWYRQAPGKERELVAEISGVGDTNYAASLADRFTVSRDNAKNTVYLQMKNLKPEDTAVYYCNAHSFLDLVGAWGQGTQVTVDKTHTCPPCPAPGGPSVFLFPPKPKDTLMISRTPEVTCVVVDVSHEDPEVKFNWYVDGVEVHNAKTKPREEQYNSTYRVVSVLTVLHQDWLNGKEYKCKVSNKALPAPIEKTISKAKGQPREPQVYTLPPSRDELTKNQVSLTCLVKGFYPSDIAVEWESNGQPENNYKTTPPVLDSDGSFFLYSKLTVDKSRWQQGNVFSCSVMHEALHNHYTQKSLSLSPGK
notes: VHH-Fc; no linker stated
B2: hzA07v4 sdAb (hzA07v4 VHH domain fused to human IgG1 xELL Fc region) (Fc fusion)
chain: EVQLVESGGGEVQPGGSLRLSCAASRSSGIDVMGWYRQAPGKERELVAEISGVGDTNYAASLADRFTVSRDNAKNTVYLQMSSLRAEDTAVYYCNAHSFLDLVGAWGQGTLVTVDKTHTCPPCPAPGGPSVFLFPPKPKDTLMISRTPEVTCVVVDVSHEDPEVKFNWYVDGVEVHNAKTKPREEQYNSTYRVVSVLTVLHQDWLNGKEYKCKVSNKALPAPIEKTISKAKGQPREPQVYTLPPSRDELTKNQVSLTCLVKGFYPSDIAVEWESNGQPENNYKTTPPVLDSDGSFFLYSKLTVDKSRWQQGNVFSCSVMHEALHNHYTQKSLSLSPGK
notes: VHH-Fc; no linker stated; also called hzA07v4-IgG1
B3: hz1C7v1 sdAb (hz1C7v1 VHH domain fused to human IgG1 xELL Fc region) (Fc fusion)
chain: EVQLVESGGGEVQPGGSLRLSCAASGRTFSGYIMGWFRQAPGKERELVARISGNNLSTEYAESVKGRFTISRDNAKNTLYLQMSSLRAEDTAVYYCAAEYDYSSGDFVYWGQGTLVTVDKTHTCPPCPAPGGPSVFLFPPKPKDTLMISRTPEVTCVVVDVSHEDPEVKFNWYVDGVEVHNAKTKPREEQYNSTYRVVSVLTVLHQDWLNGKEYKCKVSNKALPAPIEKTISKAKGQPREPQVYTLPPSRDELTKNQVSLTCLVKGFYPSDIAVEWESNGQPENNYKTTPPVLDSDGSFFLYSKLTVDKSRWQQGNVFSCSVMHEALHNHYTQKSLSLSPGK
notes: VHH-Fc; no linker stated; also called hz1C7v1-IgG1
B4: hz1C7v11 sdAb (hz1C7v11 VHH domain fused to human IgG1 xELL Fc region) (Fc fusion)
chain: EVQLVESGGGEVQPGGSLRLSCAASGRTFSGYIMGWFRQAPGKERELVARISGNNLATEYAESVKGRFTISRDNAKNTLYLQMSSLRAEDTAVYYCAAEYDYSSGDFVYWGQGTLVTVDKTHTCPPCPAPGGPSVFLFPPKPKDTLMISRTPEVTCVVVDVSHEDPEVKFNWYVDGVEVHNAKTKPREEQYNSTYRVVSVLTVLHQDWLNGKEYKCKVSNKALPAPIEKTISKAKGQPREPQVYTLPPSRDELTKNQVSLTCLVKGFYPSDIAVEWESNGQPENNYKTTPPVLDSDGSFFLYSKLTVDKSRWQQGNVFSCSVMHEALHNHYTQKSLSLSPGK
notes: VHH-Fc; no linker stated; also called hz1C7v11-IgG1
B5: hzF02v18 sdAb (hzF02v18 VHH domain fused to human IgG1 xELL Fc region) (Fc fusion)
chain: EVQLVESGGGEVQPGGSLRLSCAASGSISSYNVMGWYRQAPGKQRELVAQINAYGDTNYANAVVGRFTISRDNAKNTVYLQMSSLRAEDTAVYYCNGQRMLENYTYRDQSWGQGTLVTVDKTHTCPPCPAPGGPSVFLFPPKPKDTLMISRTPEVTCVVVDVSHEDPEVKFNWYVDGVEVHNAKTKPREEQYNSTYRVVSVLTVLHQDWLNGKEYKCKVSNKALPAPIEKTISKAKGQPREPQVYTLPPSRDELTKNQVSLTCLVKGFYPSDIAVEWESNGQPENNYKTTPPVLDSDGSFFLYSKLTVDKSRWQQGNVFSCSVMHEALHNHYTQKSLSLSPGK
notes: VHH-Fc; no linker stated; also called hzF02v18-IgG1

How the values were obtained:
[1] = molecular target: T1, CD33m, truncated human CD33 protein expressed on transfected cells (human, UniProt P20138 140-259); test: flow cytometry on cells transfected with truncated CD33m; apparent Kd, one-site fit; CD33m isoform, not CD33M
T1 construct: leader and transmembrane domain are not in it; also called truncated CD33
Description: (§1) Binding of sdAbs to human CD33 was assessed by flow cytometry. […] MOLM-13 cells were transiently transfected with a plasmid encoding a sequence comprising “CD33M” (SEQ ID NO: 112) or a plasmid encoding a sequence comprising a truncated version, “CD33m” (SEQ ID NO: 113). The sequence encoded by the CD33M plasmid includes the leader sequence, full extracellular domain, transmembrane domain, and cytoplasmic domain. The sequence encoded by the CD33m plasmid includes the leader sequence, the membrane proximal IgC2 domain, and the transmembrane domain. Untransfected HEK 293 cells were used as CD33-negative cells. Each cell type was plated at 30,000 cells/well in FACS buffer (PBS 1% BSA, 0.1% NaN₃ pH 7.4) on a 96-well round-bottom plate. The sdAbs were diluted in FACS buffer in a 3-fold, 11 point serial dilution. The sdAb dilutions were added to the plated cells, and assay plates were incubated for 30 minutes at 4° C. […] The cells were washed twice more, then bound antibody was detected by flow cytometry.
(§2) Flow cytometric analysis was performed on an Intellicyte iQue Plus and fluorescence was plotted as median fluorescence intensity. The apparent affinity (Kd, nM) was determined using one site binding non-linear regression in PRISM graph software.

[2] = molecular target: T2, CD33M, full length human CD33 protein expressed on transfected cells (human, UniProt P20138 18-303); test: flow cytometry on cells transfected with CD33M; apparent Kd, one-site fit
T2 construct: also called full length CD33
Description: (§3) Binding of sdAbs to human CD33 was assessed by flow cytometry. […] MOLM-13 cells were transiently transfected with a plasmid encoding a sequence comprising “CD33M” (SEQ ID NO: 112) or a plasmid encoding a sequence comprising a truncated version, “CD33m” (SEQ ID NO: 113). The sequence encoded by the CD33M plasmid includes the leader sequence, full extracellular domain, transmembrane domain, and cytoplasmic domain. The sequence encoded by the CD33m plasmid includes the leader sequence, the membrane proximal IgC2 domain, and the transmembrane domain. Untransfected HEK 293 cells were used as CD33-negative cells. Each cell type was plated at 30,000 cells/well in FACS buffer (PBS 1% BSA, 0.1% NaN₃ pH 7.4) on a 96-well round-bottom plate. The sdAbs were diluted in FACS buffer in a 3-fold, 11 point serial dilution. The sdAb dilutions were added to the plated cells, and assay plates were incubated for 30 minutes at 4° C. After washing twice in 150 μL of FACS buffer, cells in each well were resuspended in 100 μL of 1:2000 Alexa Fluor 647-conjugated Anti-Human IgG secondary diluted in FACS buffer and incubated at 4° C. for 30 minutes. The cells were washed twice more, then bound antibody was detected by flow cytometry.
as §2

[3] = molecular target: T1, CD33m, truncated human CD33 protein …; test: flow cytometry on cells transfected with truncated CD33m; apparent Kd, one-site fit
Description: as §3, §2

[4] = molecular target: T1, CD33m, truncated human CD33 protein …; test: flow cytometry on cells labelled CD33m-HEK-293, anti-human IgG Alexa Fluor 647 secondary, median fluorescence
Description: as §1, §2

[5] = molecular target: T2, CD33M, full length human CD33 protein …; test: flow cytometry on Molm-13 cells transfected with CD33 (CD33M per Table 3), anti-human IgG Alexa Fluor 647 secondary, median fluorescence
Description: as §1, §2

[6] = molecular target: T2, CD33M, full length human CD33 protein …; test: flow cytometry on Molm-13 cells transfected with CD33 (CD33M per Table 3), fluorescent anti-human IgG secondary, axis Median BL-1H
[7] = molecular target: T2, CD33M, full length human CD33 protein …; test: flow cytometry on cells labelled CD33M-HEK-293, anti-human IgG Alexa Fluor 647 secondary, median fluorescence
Description: Binding of sdAbs to human CD33 was assessed by flow cytometry. […] […] The sequence encoded by the CD33M plasmid includes the leader sequence, full extracellular domain, transmembrane domain, and cytoplasmic domain. The sequence encoded by the CD33m plasmid includes the leader sequence, the membrane proximal IgC2 domain, and the transmembrane domain. Untransfected HEK 293 cells were used as CD33-negative cells. Each cell type was plated at 30,000 cells/well in FACS buffer (PBS 1% BSA, 0.1% NaN₃ pH 7.4) on a 96-well round-bottom plate. The sdAbs were diluted in FACS buffer in a 3-fold, 11 point serial dilution. The sdAb dilutions were added to the plated cells, and assay plates were incubated for 30 minutes at 4° C. After washing twice in 150 μL of FACS buffer, cells in each well were resuspended in 100 μL of 1:2000 Alexa Fluor 647-conjugated Anti-Human IgG secondary diluted in FACS buffer and incubated at 4° C. for 30 minutes. The cells were washed twice more, then bound antibody was detected by flow cytometry.
as §2

T1 sequence (P20138 140-259 limits assumed): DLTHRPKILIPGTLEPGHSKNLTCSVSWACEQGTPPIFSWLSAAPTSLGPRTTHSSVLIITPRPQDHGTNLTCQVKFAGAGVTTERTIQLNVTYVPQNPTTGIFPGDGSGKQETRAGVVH
T2 sequence (P20138 18-303): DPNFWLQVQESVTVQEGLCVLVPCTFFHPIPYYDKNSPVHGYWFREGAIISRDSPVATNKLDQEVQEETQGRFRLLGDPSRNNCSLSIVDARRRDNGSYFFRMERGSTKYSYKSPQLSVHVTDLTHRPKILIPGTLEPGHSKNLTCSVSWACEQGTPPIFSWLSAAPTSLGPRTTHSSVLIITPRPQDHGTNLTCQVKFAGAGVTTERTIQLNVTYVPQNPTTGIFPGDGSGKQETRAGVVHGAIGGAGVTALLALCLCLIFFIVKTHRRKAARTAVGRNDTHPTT

Binder | Kd [1] [nM] | Kd [2] [nM] | Kd [3] [nM] | EC50 (read off the curve) [4] [nM] | EC50 (read off the curve) [5] [nM] | EC50 (read off the curve) [6] [nM] | EC50 (read off the curve) [7] [nM]
B1 | 19.9 | 53.5 |  |  |  |  | 
B2 |  | 56.6 | 11.8 | ~9 |  |  | 
B3 |  | 6.25 |  |  | ~6 |  | 
B4 |  | 5.45 |  |  |  | ~5 | 
B5 |  | 14.8 | 9.13 | ~8 |  |  | 10 to 100
